From US5786191A, “Cloning and expression of complementary DNAs for multiple members of the human cytochrome P450 2C subfamily” (priority 1994, dated 1998) come the findings set out here.

Format in all cases: biochemical
Data set [1] can be described thus: Mephenytoin 4'-hydroxylase assay, recombinant human CYP2C yeast microsomes, S-enantiomer.
Experimental: (§1) Purified or recombinant yeast microsomes (10-50 pmol) were preincubated with dilauroylphosphatidylcholine (15 μg per 50 pmol P450), P450 reductase (500 U per 50 mol P450), and human cytochrome b5 (2:1 molar ratio when added). The reconstituted mixture was preincubated for 5 min at 37° C., and then placed on ice. […] The mixture was then incubated at 37° with shaking for 3 min, and the reaction started with the addition of 2 mM NADPH and terminated after 30 min with an equal volume of methanol. […] Reaction volumes were generally 0.25 ml except when the volume of recombinant purified cytochrome or yeast microsomes was greater than 50 μl. In these cases, the volume was increased to 0.5 ml to limit the volume of glycerol from the purified preparation to <4% of the final volume.
(§2) At the end of the incubation period, the reactions were terminated with an equal volume of methanol. The incubation mixture was centrifuged at 10,000 g for 10 min and an aliquot assayed directly using HPLC without extraction. Samples with particularly low activity were concentrated by lyophilization and redissolved in a small volume of methanol:water (1:1) before assay. The HPLC system consisted of a reverse phase C18 (10 μm) Versapak, 300 mm×4.1 mm column (Altech Associates, Deerfield, Ill.) using an isocratic solvent consisting of methanol:water (45:55) with a flow rate was kept of 1 ml/min for 25 min.
A short description of data set [2]: Mephenytoin 4'-hydroxylase assay, recombinant human CYP2C yeast microsomes, R-enantiomer. The settings on record: yeast microsomes + P450 reductase, phospholipid, cytochrome b5 2:1; 0.4 mM substrate; 37° C., 30 min; liver microsomes unfortified, phosphate buffer; means ± SE.
Experimental: as §1, §2
Data set [3] can be described thus: Mephenytoin 4'-hydroxylase assay, purified recombinant P450s in reconstituted system, S-enantiomer.
Experimental: as §1, §2
A short description of data set [4]: Mephenytoin 4'-hydroxylase assay, purified recombinant P450s in reconstituted system, R-enantiomer. The settings on record: triplicate, means ± SE, blank not subtracted.
Experimental: as §1, §2
Data set [5] is described as follows: Tolbutamide hydroxylase assay, purified reconstituted P450s. The settings on record: blank (22 ± 5) subtracted, means ± SE.
Experimental: Tolbutamide hydroxylase activity was measured according to Knodell et al., J. Pharmacol. Exper. Ther. 241:1112-1119 (1987), with several modifications. Yeast microsomes (1 mg protein) were preincubated with 300 pmol hamster P450 reductase in 0.2 ml of the incubation buffer (below) for 3 min at 37° C. The reaction was then placed on ice and incubated in 0.2 ml of 50 mM HEPES buffer (pH 7.4) containing 1.5 mM MgCl2, 0.1 mM EDTA in a final volume of 1 ml and 1 mM sodium tolbutamide. The reaction was initiated with 0.5 mM NADPH. Human liver microsomes (0.22 mg protein) were incubated without reductase. Incubations with reconstituted recombinant P450s contained 50 pmol purified P450 enzyme, 150 pmol P450 reductase, and 15 μg dilauroylphosphatidylcholine, and were performed in 100 mM potassium phosphate buffer (pH 7.4). Reactions were terminated after 60 min at 37° C. by the addition of 50 μl of 4N HCl, followed by extraction with 3 ml of water-saturated ethyl acetate. The ethyl acetate extracts were dried under nitrogen at 40° C., the residue resolubilized in 200 μl methanol, and 4-hydroxytolbutamide then assayed using HPLC by injecting 50 μl of the solubilized extract onto a μBONDAPAK C18 column (4.6×300 mm) using 0.05% phosphoric acid, pH 2.6: acetonitrile (6:4, v/v) as the mobile phase with a flow rate of 1 ml/min. The column eluate was monitored at 230 nm and rates of product formation were determined from standard curves prepared by adding varying amounts of 4-hydroxytolbutamide to incubations conducted without NADPH. […] Samples were analyzed in triplicate.
Data set [6] in a line: Tolbutamide hydroxylase assay, recombinant human CYP2C yeast microsomes. Particulars: means ± SE.
Experimental: Yeast microsomes (1 mg protein) were preincubated with 300 pmol hamster P450 reductase in 0.2 ml of the incubation buffer (below) for 3 min at 37° C. The reaction was then placed on ice and incubated in 0.2 ml of 50 mM HEPES buffer (pH 7.4) containing 1.5 mM MgCl2, 0.1 mM EDTA in a final volume of 1 ml and 1 mM sodium tolbutamide. The reaction was initiated with 0.5 mM NADPH. Human liver microsomes (0.22 mg protein) were incubated without reductase. Incubations with reconstituted recombinant P450s contained 50 pmol purified P450 enzyme, 150 pmol P450 reductase, and 15 μg dilauroylphosphatidylcholine, and were performed in 100 mM potassium phosphate buffer (pH 7.4). Reactions were terminated after 60 min at 37° C. by the addition of 50 μl of 4N HCl, followed by extraction with 3 ml of water-saturated ethyl acetate. […] The column eluate was monitored at 230 nm and rates of product formation were determined from standard curves prepared by adding varying amounts of 4-hydroxytolbutamide to incubations conducted without NADPH. […] Samples were analyzed in triplicate.

B1: 2C8: recombinant human P450 2C8 (clones 7b and 7c, Thr^130 Ile^264 variant) expressed in yeast (protein, UniProt P10632 1-490, looked up)
Cytochrome P450 2C8: MEPFVVLVLCLSFMLLFSLWRQSCRRRKLPPGPTPLPIIGNMLQIDVKDICKSFTNFSKVYGPVFTVYFGMNPIVVFHGYEAVKEALIDNGEEFSGRGNSPISQRITKGLGIISSNGKRWKEIRRFSLTTLRNFGMGKRSIEDRVQEEAHCLVEELRKTKASPCDPTFILGCAPCNVICSVVFQKRFDYKDQNFLTLMKRFNENFRILNSPWIQVCNNFPLLIDCFPGTHNKVLKNVALTRSYIREKVKEHQASLDVNNPRDFIDCFLIKMEQEKDNQKSEFNIENLVGTVADLFVAGTETTSTTLRYGLLLLLKHPEVTAKVQEEIDHVIGRHRSPCMQDRSHMPYTDAVVHEIQRYSDLVPTGVPHAVTTDTKFRNYLIPKGTTIMALLTSVLHDDKEFPNPNIFDPGHFLDKNGNFKKSDYFMPFSAGKRICAGEGLARMELFLFLTTILQNFNLKSVDDLKNLNTTAVTKGIVSLPPSYQICFIPV
For B1, the “R/S Ratio of mephenytoin 4'-hydroxylase activity” value in data set [1] (recombinant yeast microsomes (Table III)) and in data set [3] (purified P450s (Table IV)) was 0.4 each time. In addition, the “Mephenytoin 4'-Hydroxylase Activity, S” value is recorded as 0.037 ± 0.001 nmol/min/nmol P450 in data set [1] (yeast microsomes + P450 reductase, phospholipid, cytochrome b5 2:1, 0.4 mM substrate, 37° C., 30 min, liver microsomes unfortified, phosphate buffer, means ± SE) and 0.057 ± 0.009 nmol/min/nmol P450 in data set [3] (purified P450s, reconstituted system, triplicate, means ± SE, blank not subtracted). Besides, the entries for the “Mephenytoin 4'-Hydroxylase Activity, R” value in data set [2] and in data set [4] were 0.016 ± 0.001 nmol/min/nmol P450 and 0.023 ± 0.004 nmol/min/nmol P450, respectively. For the same molecule, the “Tolbutamide Hydroxylase Activity” value in data set [5] amounted to 12 ± 4 pmol/min/nmol P450. Also, the “Tolbutamide Hydroxylase Activity per mg protein” value in data set [6] (1 mg yeast microsomal protein + P450 reductase, or 0.2 mg liver microsomal protein without reductase) came to 8.5 ± 0.2 nmol/min/mg protein. For the same molecule, the “Tolbutamide Hydroxylase Activity per nmol P450” value in data set [6] (adjusted for P450 content) turned out to be 0.11 ± 0.003 nmol/min/nmol P450.
